According to US20040127419A1 (Amgen, published 2004):

Target: T1, mature human glial cell line-derived neurotrophic factor (hGDNF), CHO cell-expressed (human, UniProt P39905 78-211, glycosylated (N-linked sugar, about 4.5 kDa))
T1 construct: The native protein is a disulfide-bonded homodimer (44 kDa on non-reducing gels); also called mature GDNF; 22 kDa band
T1 chain: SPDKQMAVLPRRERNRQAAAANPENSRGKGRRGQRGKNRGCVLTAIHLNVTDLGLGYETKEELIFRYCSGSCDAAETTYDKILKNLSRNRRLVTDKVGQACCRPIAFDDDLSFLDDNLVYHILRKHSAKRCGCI
Test: purification from CHO conditioned medium, Western blot and N-terminal sequencing; disulfide-bonded dimer
Procedure: The following process describes the purification of CHO-expressed GDNF and a CHO-derived clipped GDNF homodimer, from one liter of conditioned media. Because of significant protease action in the CHO medium, clipping the chain at residue 31, the procedure may include the use of a protease inhibitor during purification.
Serum free conditioned media was made 20 mM 2-[N-Morpholino] ethane sulfonate (MES), pH 6.0, by adding one fiftieth volume of 1 M MES, pH 6.0. Twenty five milliliters of SP Sepharose Big Bead resin (Pharmacia), equilibrated with 20 mM MES, pH 6.0, was added and stirred at 4° C. for one hour. The resin was collected by allowing it to settle and decanting off the conditioned media. The decanted media was filtered through a fritted disc filter to recover any unsettled resin. […] Protein was eluted with a 300 ml gradient from A buffer to 1.0 M NaCl, 20 mM MES, pH 6.0 (B buffer), at a flow rate of 0.2 column volumes/minute with absorbance monitored at 280 nm. […] The presence of GDNF in the fractions was detected by Western blotting analysis. […]
Fractions containing GDNF from Step 2 were resolublized in one milliliter of 0.15 M NaCl, 10 mM Tris, pH 8.0, and applied to a 0.75×7.5 cm TSK-Gel 5WP high performance S column (Toso Haas). […] One minute fractions were collected with absorbance measured at 280 nm. […]

binding result: binds
B1: [Arg32-Ile134] truncated GDNF protein, CHO cell-derived (ligand)
chain: RGQRGKNRGCVLTAIHLNVTDLGLGYETKEELIFRYCSGSCDAAETTYDKILKNLSRNRRLVTDKVGQACCRPIAFDDDLSFLDDNLVYHILRKHSAKRCGCI
modifications: glycosylated (N-linked and O-linked sugars)
notes: It forms a disulfide-bonded homodimer (36 kDa) or a heterodimer with mature GDNF (40 kDa); A later purification also found a [Lys37-Ile134] form; also called clipped GDNF; 18 kDa band
